According to US20040086933A1 (Chugai, published 2004):

B1: full-length striamin with a histidine tag (pQE30/full-length striamin) (other)
chain: MKGLAGEWHQDSGLDIREKAEDFSLPWLLPRLMALVMQEEGRFRSDRNHGYLREWLRIQALTACLPSPLGRVHYAQCSPKQKGRLPRGWASLPSLSVLVRALRASNAFSLGNYYCCPWRGTRWAKGQPGEWARPRASSPSAHREGVAVT
notes: also called pQE30/striamin; His-tagged striamin; not shown: N-terminal His tag encoded by the pQE30 vector (Qiagen)
B2: N-striamin with a histidine tag (pQE30/N-striamin) (other)
chain: MKGLAGEWHQDSGLDIREKAEDFSLPWLLPRLMALVMQEEGRFRSDRNHGYLREWLRIQALTACLPSPLGRVHYA
notes: not shown: N-terminal His tag encoded by the pQE30 vector (Qiagen)
B3: C-striamin with a histidine tag (pQE30/C-striamin) (other)
chain: QCSPKQKGRLPRGWASLPSLSVLVRALRASNAFSLGNYYCCPWRGTRWAKGQPGEWARPRASSPSAHREGVAVT
notes: as for B2

Assays:
[1] = target: temperature-sensitive p53 (pMSVp53Val135) (UniProt P02340); test: cell-based or functional assay
GST = target: T1, GST (UniProt P08515 1-218 = GST); test: GST pull-down with glutathione-Sepharose, anti-His Western blot (FIG. 9, Lanes 4 to 6)
T1 construct: also called glutathione S-transferase
Method: Different striamins conjugated to histidines were reacted with p53 conjugated to GST in vitro, and the reaction was immunoprecipitated with glutathione Sepharose beads, followed by Western blot analysis using anti-histidine-tag and anti-p53 antibodies (“GST-p53 pull” in the figure).
Each protein purified in step (1) (2 to 5 μg) was mixed with GST or GST-p53 (1 μg, Santa Cruz) in NP40-lysis buffer (500 μl). After two hours, glutathione-Sepharose beads (20 μl) were added to the suspension and rotated for mixing for one hour at 4° C. The beads were precipitated by centrifugation, washed three times with TBS and then boiled in SDS-sample buffer. Subsequently, SDS-PAGE was carried out for each sample, followed by detection of the respective striamins conjugated to the histidines by Western blotting using an anti-histidine-tag antibody. In addition, p53 was detected by Western blotting using anti-p53 antibody.

T1 sequence (P08515 whole entry): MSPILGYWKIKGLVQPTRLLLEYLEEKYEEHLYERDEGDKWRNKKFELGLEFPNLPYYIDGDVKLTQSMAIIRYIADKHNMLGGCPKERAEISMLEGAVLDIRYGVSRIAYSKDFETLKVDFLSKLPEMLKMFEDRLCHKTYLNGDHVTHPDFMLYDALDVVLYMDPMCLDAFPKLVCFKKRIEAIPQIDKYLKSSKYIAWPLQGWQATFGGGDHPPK

Row | Molecule | p53 activity (p53-responsive luciferase reporter PG-13luc in p53-/- MEF cells) [1] | β-gal positive cells (p53-responsive β-gal reporter pRGC fos-lacZ in microinjected p53-/- MEF cells) [1] | binding result (GST)
1 | striamin (full-length, untagged) | 4.6 fold | 5% | 
2 | B1 |  |  | no binding
3 | B2 |  |  | no binding
4 | B3 |  |  | no binding
